According to PMC13486833 (2026):

What was measured:
RAGE-Fc chimera protein [1] = biological target: T1, RAGE-Fc chimera protein (UniProt Q15109 23-342); test: BLI
RAGE-Fc chimera protein [2] = biological target: T1, RAGE-Fc chimera protein; test: ELISA
RAGE-Fc chimera protein [3] = biological target: T1, RAGE-Fc chimera protein; test: BLI; kinetics
RAGE-Fc chimera protein [4] = biological target: T1, RAGE-Fc chimera protein; test: BLI; saturation

T1 sequence (Q15109 23-342, change not shown): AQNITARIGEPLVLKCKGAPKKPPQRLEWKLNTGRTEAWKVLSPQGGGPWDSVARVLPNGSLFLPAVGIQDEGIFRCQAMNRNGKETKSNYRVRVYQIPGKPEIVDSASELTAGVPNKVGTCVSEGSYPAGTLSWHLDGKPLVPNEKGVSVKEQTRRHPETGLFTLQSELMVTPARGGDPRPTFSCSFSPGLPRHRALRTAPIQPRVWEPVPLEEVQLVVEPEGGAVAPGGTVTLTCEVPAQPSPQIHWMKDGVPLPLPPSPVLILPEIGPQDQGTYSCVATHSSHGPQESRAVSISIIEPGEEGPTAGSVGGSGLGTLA

Binder | koff (RAGE-Fc chimera protein [1]) | Kd (RAGE-Fc chimera protein [2]) | Kd (RAGE-Fc chimera protein [3]) | Kd (RAGE-Fc chimera protein [4])
3S-HMGB1 1–214 (natural protein) GKGDPKKPRGKMSSYAFFVQTSREEHKKKHPDASVNFSEFSKKSSERWKTMSAKEKGKFEDMAKADKARYEREMKTYIPPKGETKKKFKDPNAPKRPPSAFFLFSSEYRPKIKGEHPGLSIGDVAKKLGEMWNNTAADDKQPYEKKAAKLKEKYEKDIAAYRAKGKPDAAKKGVVKAEKSKKKKEEEEDEEDEEDEEEEEDEEDEDEEEDDDDE | 0.015 s⁻¹ | 7.22 nM | 900 nM | 3000 nM
DS Box A 1-88 (protein, intramolecular disulfide Cys22-Cys44 in paper numbering (UniProt Cys23-Cys45); paper numbering omits the initiator Met (offset +1: paper Pro8-Ile78 = UniProt 9-79); any initiator Met or tag remnant left out) GKGDPKKPRGKMSSYAFFVQTCREEHKKKHPDASVNFSEFSKKCSERWKTMSAKEKGKFEDMAKADKARYEREMKTYIPPKGETKKKF | 0.439 s⁻¹ |  | 15600 nM | 53400 nM
DS-HMGB1 1–184 (domain or fragment, disulfide bond between C22 and C44) GKGDPKKPRGKMSSYAFFVQTCREEHKKKHPDASVNFSEFSKKCSERWKTMSAKEKGKFEDMAKADKARYEREMKTYIPPKGETKKKFKDPNAPKRPPSAFFLFCSEYRPKIKGEHPGLSIGDVAKKLGEMWNNTAADDKQPYEKKAAKLKEKYEKDIAAYRAKGKPDAAKKGVVKAEKSKKKK | 0.067 s⁻¹ | 33.9 nM | 200 nM | 500 nM
DS-HMGB1 1–164 (domain or fragment, disulfide bond between C22 and C44) GKGDPKKPRGKMSSYAFFVQTCREEHKKKHPDASVNFSEFSKKCSERWKTMSAKEKGKFEDMAKADKARYEREMKTYIPPKGETKKKFKDPNAPKRPPSAFFLFCSEYRPKIKGEHPGLSIGDVAKKLGEMWNNTAADDKQPYEKKAAKLKEKYEKDIAAYRAK | 0.152 s⁻¹ |  | 900 nM | 3100 nM

Further lines, results first:

koff (RAGE-Fc chimera protein [1]) | Kd (RAGE-Fc chimera protein [2]) | Kd (RAGE-Fc chimera protein [3]) | Kd (RAGE-Fc chimera protein [4]) | Binder
 |  | 1300 nM |  | dBB12L (FR-HMGB1 89–174::89–174) (other, fully reduced Cys105 (printed numbering) in both copies; printed n = entry n+1 (C22/C44/C105 = C23/C45/C106 in P09429); direct tandem fusion, with native flanks acting as the linker) KDPNAPKRPPSAFFLFCSEYRPKIKGEHPGLSIGDVAKKLGEMWNNTAADDKQPYEKKAAKLKEKYEKDIAAYRAKGKPDAAKKGVKDPNAPKRPPSAFFLFCSEYRPKIKGEHPGLSIGDVAKKLGEMWNNTAADDKQPYEKKAAKLKEKYEKDIAAYRAKGKPDAAKKGV
0.041 s⁻¹ | 86.1 nM | 800 nM | 2300 nM | FR-HMGB1 1–214 (natural protein) MGKGDPKKPRGKMSSYAFFVQTCREEHKKKHPDASVNFSEFSKKCSERWKTMSAKEKGKFEDMAKADKARYEREMKTYIPPKGETKKKFKDPNAPKRPPSAFFLFCSEYRPKIKGEHPGLSIGDVAKKLGEMWNNTAADDKQPYEKKAAKLKEKYEKDIAAYRAKGKPDAAKKGVVKAEKSKKKKEEEEDEEDEEDEEEEEDEEDEDEEEDDDDE
0.043 s⁻¹ | 4.35 nM | 200 nM | 1300 nM | DS-HMGB1 1–214 (natural protein, disulfide bond between C22 and C44) MGKGDPKKPRGKMSSYAFFVQTCREEHKKKHPDASVNFSEFSKKCSERWKTMSAKEKGKFEDMAKADKARYEREMKTYIPPKGETKKKFKDPNAPKRPPSAFFLFCSEYRPKIKGEHPGLSIGDVAKKLGEMWNNTAADDKQPYEKKAAKLKEKYEKDIAAYRAKGKPDAAKKGVVKAEKSKKKKEEEEDEEDEEDEEEEEDEEDEDEEEDDDDE
